Assay results published in paper PMC10997057.

Columns and labels:
[1] = molecular target: synthetic AL amyloid fibrils composed of the recombinant λ6 light chain variable domain from patient (human); assay: co-sedimentation; "pulldown" bioactivity assay; product labelled from lyophilized "kit" preparations stored at -80°C for 7, 98 and 128 days
[2] = molecular target: ALλ amyloid extract (patient spleen) (human (endogenous in patient spleen)); assay: co-sedimentation; pulldown with tissue amyloid extracts suspended in PBS at 1 mg/mL, homogenized; as for WIL fibrils except that 1.0% bovine serum albumin was added
[3] = molecular target: ATTRv amyloid extract (patient heart), variant not named (human (endogenous in patient heart)) (UniProt P02766); assay: as above
[4] = molecular target: murine splenic AA amyloid extract (mouse (endogenous in spleen)) (UniProt P05367); assay: as above
Chain of murine splenic AA amyloid extract (mouse (endogenous in spleen)) (P05367 20-122): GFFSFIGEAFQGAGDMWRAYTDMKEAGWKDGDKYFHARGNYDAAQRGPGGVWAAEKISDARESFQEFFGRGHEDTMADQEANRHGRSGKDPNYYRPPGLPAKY

[5] = molecular target: ALκ amyloid extract (patient liver) (human (endogenous in patient liver)); assay: as above
[6] = molecular target: synthetic AL amyloid fibrils composed of the recombinant λ6 light chain variable domain from patient (human); assay: co-sedimentation; "pulldown" bioactivity assay as a1; batch product 6 h post-synthesis (some loss of ^99mTcO4^-1 from the peptide)
[7] = molecular target: synthetic AL amyloid fibrils composed of the recombinant λ6 light chain variable domain from patient (human); assay: co-sedimentation; "pulldown" bioactivity assay as a1; batch product stored 3 h at RT post-synthesis
[8] = molecular target: synthetic AL amyloid fibrils composed of the recombinant λ6 light chain variable domain from patient (human); assay: co-sedimentation; "pulldown" bioactivity assay; batch product at 0 h post-synthesis; 25 ug fibrils in PBS with 0.05% tween 20, 20-40 ng radiolabeled product, 1 h at RT, centrifugation 10,000 x g 3 min, gamma counting of pellet and supernatant
[9] = molecular target: synthetic AL amyloid fibrils composed of the recombinant λ6 light chain variable domain from patient (human); assay: co-sedimentation; pulldown as for WIL fibrils except that 1.0% bovine serum albumin was added; synthetic rVλ6WIL fibrils as substrate

Chain of ^99mTc-labeled p5+14 peptide (peptide): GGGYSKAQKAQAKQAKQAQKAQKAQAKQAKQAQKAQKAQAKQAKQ

bioactivity (% bound), kit at day 7 [1]: 76.8% | bioactivity (% bound), kit at day 98 [1]: 75.1% | bioactivity (% bound), kit at day 128 [1]: 75.2% | bound (%) [2]: 88.1% | bound (%) [3]: 79% | bound (%) [4]: 67.8% | bound (%) [5]: 93.3% | Bioactivity (bound %), 6 h post-synthesis [6]: 72.2% | Bioactivity (bound %), 3 h post-synthesis [7]: 92.9% | Bioactivity (bound %), 0 h post-synthesis [8]: 94% | bound (%) [9]: 91.1%
Substance: ^99mTc-labeled p5+14 peptide
